Here are results for four compounds from PMC5635000, “Structural and mechanistic characterization of an archaeal-like chaperonin from a thermophilic bacterium” (Nature Communications, 2017).

Assay [1] deals with Group III chaperonin from Carboxydothermus hydrogenoformans (Ch-CPN), wild type (Carboxydothermus hydrogenoformans) (UniProt Q3AF10). Nature of the assay: crystal structure; Ch-CPN with 3 mM AMPPNP, closed conformation; batch crystallisation at 22 °C, 20 mM MgCl2, 100 mM HEPES:NaOH pH 7.5; 3.0 Å.
Assay [2] concerns the target T1, Ch-CPN (Carboxydothermus hydrogenoformans, UniProt Q3AF10).
T1 construct: gene CHY_0413; full-length wild type, 521 residues; recombinant from E. coli BL21(DE3), no tag mentioned; homo-hexadecamer of two octameric rings; residues 10-502 (5X9V) and 9-502 (5X9U) modelled
T1 sequence (Q3AF10 1-521): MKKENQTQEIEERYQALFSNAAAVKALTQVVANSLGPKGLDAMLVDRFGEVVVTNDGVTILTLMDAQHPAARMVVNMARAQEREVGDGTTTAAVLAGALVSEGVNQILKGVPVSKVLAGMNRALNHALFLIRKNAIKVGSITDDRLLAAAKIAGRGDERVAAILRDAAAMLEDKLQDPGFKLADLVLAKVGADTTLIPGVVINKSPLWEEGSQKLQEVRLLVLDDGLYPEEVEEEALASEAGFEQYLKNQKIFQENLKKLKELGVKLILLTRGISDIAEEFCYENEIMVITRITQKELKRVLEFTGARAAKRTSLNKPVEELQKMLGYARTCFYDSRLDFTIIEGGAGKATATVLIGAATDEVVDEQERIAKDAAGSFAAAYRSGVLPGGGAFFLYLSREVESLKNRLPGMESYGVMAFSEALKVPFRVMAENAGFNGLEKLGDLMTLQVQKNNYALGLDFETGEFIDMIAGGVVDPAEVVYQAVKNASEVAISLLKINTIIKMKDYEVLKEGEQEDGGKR
Nature of the assay: X-ray crystal structure, […] Å. The class given is binding. To be noted: closed conformation; nucleotide site of equatorial domain; Mg2+; 3 mM AMPPNP, pH 7.5.

For assay [3], the target named is Ch-CPN L439A pivot joint mutant (Carboxydothermus hydrogenoformans) (UniProt Q3AF10). Nature of the assay: not stated; L439A subunits purified as hexadecameric chaperonins (Supplementary Fig. 12b).
In assay [4] the target is T1, Ch-CPN. Briefly: X-ray crystal structure, […] Å. It is filed as binding. To be noted: open conformation; nucleotide site of equatorial domain; no Mg2+ seen; 3 mM ADP, pH 7.0.

In assay [1], “Group III chaperonin from Carboxydothermus hydrogenoformans (Ch-CPN), wild type (from UniProt Q3AF10 1-521) (natural protein)” came in with a stoichiometry N of 16.

On to `Nc1ncnc2c1ncn2[C@@H]1O[C@H](COP(=O)(O)OP(=O)(O)NP(=O)(O)O)[C@@H](O)[C@H]1O` [AMPPNP], for which the “X-ray crystal structure, 3.0 Å” value on Ch-CPN [2] is on record as “crystal structure of Ch-CPN in complex with AMPPNP, an ATP analog, revealed its closed conformation”.

In the case of “Ch-CPN L439A pivot joint mutant (from UniProt Q3AF10 1-521) (natural protein)”, the stoichiometry N in assay [3] was 16.

Consider `Nc1ncnc2c1ncn2[C@@H]1O[C@H](COP(=O)(O)OP(=O)(O)O)[C@@H](O)[C@H]1O` [ADP], for which the “X-ray crystal structure, 4.0 Å” value on Ch-CPN [4] is “The crystal structure of the ADP-bound Ch-CPN shows its fully open conformation”.

In general, stoichiometry N refers to the number of molecules, sites or subunits per partner or assembly.
